The target in one assay is T1, native trimeric LIGHT (Homo sapiens, UniProt O43557, K214E).
T1 construct: amino acids 74-240 LIGHT (R&D Systems, 664-LI-025); purchased R&D Systems 664-LI-025
The experiment in a line: Binding ratio of mAbs bound to LIGHT by native mass spectrometry. Particulars: LIGHT incubated 1:5 molar ratio (protein:antibody). Here is the method: The LIGHT protein (R&D Systems 664-LI-025) was solubilised in PBS buffer at a final concentration of 4 μM, whereas the mAbs were maintained at 20 μM in PBS. The samples were buffer exchanged into ammonium acetate pH 7.4 at different concentrations via a column with a cut-off of 40 kDa prior to mass spectrometry optimisation. […] Samples were stored at 4° C. and were used within one week. The antibodies were diluted to 1 μM prior to MSanalysis. For complex formation the LIGHT protein was incubated with each antibody separately in 1:5 ratio on ice and native mass measurements were performed 30 min after incubation.
Nano electrospray ionization measurements were performed using a Q Exactive hybrid quadrupole-Orbitrap mass spectrometer (Thermo Fisher Scientific) modified for the transmission and detection of high m/z ions. […] Elevated pressure was applied in the front optics and mass spectra were recorded at optimized collision energy. […] Data were analysed with Xcaliber software and deconvoluted manually.
Native mass spectroscopy was utilised to determine the ratio of mAb bound to native trimeric LIGHT. The measured mass of 3B04 (IgG4) was 147256±0.7 Da and the F19 anti-LIGHT mAb, (IgG4 mAb from EP2292663) was 147364±6.6 Da. […] Two major populations of the light protein were recorded with measured masses of 68 kDa and 71 kDa. […]

The target of assay [1] is T2, wild type and mutated membrane LIGHT (Homo sapiens, UniProt O43557, T191A).
T2 construct: The full length LIGHT gene was synthesized by GeneArt (ThermoFisher Scientific); expressed in transfected cells; host or cells: HEK293FF, transient, pcDNA 3.1(+)
T2 sequence (O43557 whole entry T191A): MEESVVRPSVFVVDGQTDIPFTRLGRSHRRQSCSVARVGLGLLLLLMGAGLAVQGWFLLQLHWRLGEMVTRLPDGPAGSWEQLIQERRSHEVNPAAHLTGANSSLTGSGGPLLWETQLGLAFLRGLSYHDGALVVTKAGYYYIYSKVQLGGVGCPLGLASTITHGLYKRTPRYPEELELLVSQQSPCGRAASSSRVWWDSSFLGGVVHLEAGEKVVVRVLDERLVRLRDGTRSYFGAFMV
The experiment in a line: Alanine scanning mutagenesis of membrane LIGHT and flow cytometry (HEK293FF cells). Particulars: aa mutation T191A, SEQ ID NO. 138. Type of assay: binding. An excerpt: (§1) The full length LIGHT gene was synthesized by GeneArt (ThermoFisher Scientific) and cloned into the mammalian expression vector pcDNA 3.1(+). The following Ala mutations were introduced into the LIGHT gene: 30 single amino acid alanine substitutions from F57A to E86A; 2 single amino acid alanine substitutions; G188A, R189A; one serine substitution, A190S; 17 single amino acid alanine substitutions; T191A to V207A and 10 four amino acid alanine substitutions, 60-63, 64-67, 68-71, 72-75, 76-79, 80-83, 84-87, 88-91, 92-95 and 96-99. Constructs were reconstituted according to manufacture instructions, using DEPC-treated and sterile filtered water. Competent TOP10 E. coli cells were transformed with 100 ng of each construct and a single colony from each construct was picked and used to inoculate 10 ml of LB/carb100/glu2% medium and grown overnight at 37° C., 200 rpm. The extraction of the construct DNA was performed using the Qiagen QIAprep Spin Miniprep Kit (250) and the concentration was determined by measuring the O.D. at 260 nm in a spectrophotometer.
(§2) HEK293FF cells were cultured in Freestyle™293 expression medium (ThermoFisher scientific cat. no. 12338018) supplemented with 2 mM L-Glutamine. The day of transfection the cells were seeded in a 24-well plate at 0.6×10^6 cells/well. Lipofectamine 2000 (ThermoFisher scientific), 3 μl, was mixed with 50 μl OptiMEM medium (GIBCO) and then added to 50 μl Opti-MEM medium containing 3 ug plasmid DNA and incubated for 20 min at RT to form DNA-Lipofectamine 2000 complexes which were then added to the HEK293FF cells and incubated at 37° C., 5% CO2 for 24 hours. For each construct, in duplicate, 0.60×10^6 cells/well were used in a 96 well round bottom plate. Cells were centrifuged for 3 minutes at 300×g at 4° C., the supernatant discarded and the cells washed with 150 μl FACS buffer (0.5% FBS in phosphate buffered saline). This process was repeated 3 times. For each construct, […] cells/well were incubated with anti-LIGHT antibodies at the EC50 concentration and with positive controls of anti-LIGHT mAb MAB664 (R&D Systems), mAb F19 (EP2292663) or LTBR-Fc (R&D Systems), in a final volume of 50 μl/well for 30 min at 4° C., with shaking. The wells were washed 3 times as above and 50 μl/well of goat anti-human IgG FITC (1:1500 dilution in FACS buffer, SIGMA F9512-2ML) or goat anti-mouse APC (1/500 dilution in FACS buffer, BDBioscience 550826), as appropriate, was added to the wells and incubated for 30 min at 4° C. protected from the light, with shaking. The cells were then washed as above, resuspended in 100 μl of FACS buffer and binding of the antibodies to the constructs was measured using flow cytometry and a total of 10,000 cells were acquired for each sample. Controls of buffer and secondary antibody only as well as HEK293FF non transfected cells were also used.
(§3) All of the mAbs of this invention show a similar profile in that their epitope is located at amino acids 188-197 of LIGHT. […] The epitope of the mAbs of this invention defined by alanine scanning mutagenesis are residues 188-197 of LIGHT. This is visually depicted in FIG. 8 utilising a 3D visualisation of the LIGHT trimer from the crystal structure of LIGHT from Liu et al. (Structure 22: 1252-62; 2014). This would result in the mAbs binding to the “tip” of the LIGHT trimer and explaining the 1:1 binding. The impact of this epitope would result in […] less dosing of mAb 3B04 being required to neutralise membrane LIGHT compared to, for example, mAbs F19 and F23 (of EP2292663) which bind both soluble and membrane LIGHT equally and bind LIGHT in the ratio 3:1.

Assay [2] deals with T3, wild type and mutated membrane LIGHT (Homo sapiens, UniProt O43557, W198A).
T3 construct: The full length LIGHT gene was synthesized by GeneArt (ThermoFisher Scientific); expressed in transfected cells; host or cells: HEK293FF, transient, pcDNA 3.1(+)
T3 sequence (O43557 whole entry W198A): as the sequence (O43557 whole entry T191A) above, with A191T, W198A counted along it
The assay is described as above. Type of assay: binding. The conditions noted are these: aa mutation W198A, SEQ ID NO. 145.
Source text: as §1, §2, §3

The target in assay [3] is T4, wild type and mutated membrane LIGHT (Homo sapiens, UniProt O43557, V196A).
T4 construct: The full length LIGHT gene was synthesized by GeneArt (ThermoFisher Scientific); expressed in transfected cells; host or cells: HEK293FF, transient, pcDNA 3.1(+)
T4 sequence (O43557 whole entry V196A): as the sequence (O43557 whole entry T191A) above, with A191T, V196A counted along it
Described as above. Type of assay: binding. Particulars: aa mutation V196A, SEQ ID NO. 143.
Source text: as §1, §2, §3

Positions count from the first letter of the chain named.

T1 sequence (O43557 74-240 K214E): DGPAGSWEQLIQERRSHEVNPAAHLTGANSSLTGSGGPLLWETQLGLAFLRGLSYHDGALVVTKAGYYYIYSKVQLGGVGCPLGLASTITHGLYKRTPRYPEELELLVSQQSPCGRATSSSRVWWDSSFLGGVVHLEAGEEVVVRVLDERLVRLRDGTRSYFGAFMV

B1: 3B04: parental mouse anti-membrane LIGHT antibody, VL SEQ ID NO 1, VH SEQ ID NO 5; tested as chimeric human IgG4 mAb (antibody, listed as Homo sapiens, V domains shown)
VH: QVQLQQPGAELVRPGASVTLSCKASGYTFTDYEMHWVKQTPVHGLEWIGEIDPETGDTAYSQKFKGKATLTADKSSSTAYMEFRSLTSEDSAVYYCSRETDYFFDYWGQGTTLTVSS
VL: DIQMTQTPASLSASVGETVTITCGASENIYGALNWYQRKQGKSPQLLIYGATNLADGMSSRFSGSGSGRQYSLKISSLHPDDFATYYCQNVLTTPWTFGGGTKLEIKR
On to B1, for which the “Stoichiometry of mAb bound to native trimeric LIGHT (antibody:LIGHT trimer)” value in the assay with native trimeric LIGHT is recorded as “one antibody per one LIGHT protein”.

B2: 3D12: parental mouse anti-membrane LIGHT antibody, VL SEQ ID NO 41, VH SEQ ID NO 45; tested as chimeric human IgG4 mAb (antibody, listed as Homo sapiens, V domains shown)
VH: B1 VH with G26D, Y32S, M34I, D57G, S61N, F83L
VL: B1 VL with T7S, F83V, T93S
For B2, the entries for the “Binding to membrane LIGHT construct as a percentage of the WT binding” value in assay [1], in assay [2] and in assay [3] were 3%, 86% and 78%, respectively.

The values are drawn from patent publication US11312781B2, “Antigen binding molecules that bind LIGHT” (Capella Bioscience Ltd., priority 2018, dated 2022).
